This note sets out measurements from article PMC12505970.

The assay has as its target FLAG-AuxB^W86A (S. aureus) (S. aureus). Put plainly: co-IP; FLAG-tagged bait from S. aureus membranes solubilised in 1% DDM (PBS pH 7.4, NaCl), α-FLAG M2 magnetic beads at 4°C, washes with decreasing DDM, elution with 3×FLAG peptide; Coomassie-stained gel, bands identified by LC-MS.

On to “PknB (endogenous, S. aureus) (from UniProt A0A0H2XGG5 1-664) (natural protein)”, for which the ratio of PknB pulled down, AuxB^W86A against wild type (densitometry) amounted to 4.2 and the ratio of PknB pulled down, AuxB^W86A against wild type (peptide counts of PknB in the total eluate) stood at 5.
